Experimental data from patent EP4741420A1, “PHARMACEUTICAL COMPOSITION FOR PREVENTING OR TREATING OBESITY COMPRISING GLP ANALOGUE AS ACTIVE INGREDIENT” (priority 2023, dated 2025).
Read-outs that look alike come from different tables or passages of the source. Blank lines part the entries; values can stand above or below the molecule they belong to. Ends that are not written are not given here. Peptide text beside a SMILES is read from it. * marks the point of attachment. Palmitoyl = CCCCCCCCCCCCCCCC(=O)*

Key:
GLP-2 = biological target: T1, GLP-2 (Homo sapiens, UniProt O95838); assay: GLP-2 activity, cell-based cAMP assay (same method as Example 2); settings: for EC50: Example 5; for GLP-2 activity Compared to GLP-2: Example 5, relative to GLP-2
T1 sequence (O95838 1-553): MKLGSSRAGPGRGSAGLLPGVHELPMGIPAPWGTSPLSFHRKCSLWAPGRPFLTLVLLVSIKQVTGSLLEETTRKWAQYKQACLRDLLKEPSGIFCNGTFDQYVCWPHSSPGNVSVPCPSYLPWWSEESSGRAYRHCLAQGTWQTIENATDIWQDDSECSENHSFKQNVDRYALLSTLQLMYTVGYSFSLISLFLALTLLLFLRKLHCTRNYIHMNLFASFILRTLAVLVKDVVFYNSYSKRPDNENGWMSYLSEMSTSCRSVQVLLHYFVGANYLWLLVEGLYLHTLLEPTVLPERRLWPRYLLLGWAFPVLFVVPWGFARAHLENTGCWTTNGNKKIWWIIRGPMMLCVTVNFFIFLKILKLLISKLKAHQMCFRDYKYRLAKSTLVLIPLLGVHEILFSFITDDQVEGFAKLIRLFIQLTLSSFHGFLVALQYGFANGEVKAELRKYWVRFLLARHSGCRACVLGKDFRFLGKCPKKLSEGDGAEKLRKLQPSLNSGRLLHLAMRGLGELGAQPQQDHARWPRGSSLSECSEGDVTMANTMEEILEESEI

GLP-1R = GLP-1R (Homo sapiens, UniProt P43220); assay: GLP-1 activation: cell-based cAMP assay in GLP-1R/CHO cells; settings: Example 5, relative to Exendin-4
[1] = Mouse PK after single subcutaneous administration, LC-MS/MS of plasma; type: in vivo, mice
Procedure: Each of the experimental groups and the control was subcutaneously administered once to the dorsal area of a total of 12 mice using a 1 mL syringe equipped with a 26-gauge needle at a dose of 0.2 mg/5 mL/kg. After drug administration, approximately 0.04 to 0.05 mL of blood was collected per individual at the time scheduled for the orbital vein (4 mice were alternately sampled), and the blood collection times were 1, 2, 4, 8, 24 ,32 ,48, 56, 72, 96, and 120 hours. All plasma samples were analyzed using a self-developed LC-MS/MS assay. Pharmacokinetic analysis of blood drugs was performed using non-compartmental analysis, and analysis of pharmacokinetic parameters was performed using Phoenix WinNolin 64 (Version. 8.3.5 340).

C57BL/6 DIO mice [2] = assay: Diet-induced obesity mouse model: body weight and food intake (Example 3); type: in vivo; settings: 4 weeks administration, 0.20 mg/kg/dose
C57BL/6 DIO mice [3] = assay: Diet-induced obesity mouse model: blood/serum biochemical tests (Example 3); type: in vivo; settings: after 4 weeks, 0.20 mg/kg/dose (dose from Table 3)
Procedure: Here, the body weight and food intake were measured daily.
In addition, after the experiment was completed, blood and serum samples were obtained from each mouse model, and biochemical tests were performed for blood glucose, total cholesterol, high-density lipoprotein (HDL), low-density lipoprotein (LDL), and triglycerides.

[4] = in vivo; cited from earlier work
[5] = biological target: GLP-1R (on GLP-1R/CHO cells, DiscoverX 95-0062C2) (UniProt P43220); assay: cell-based or functional assay
[6] = biological target: T2, GLP-1R (on GLP-1R/CHO cells, DiscoverX 95-0062C2) (UniProt P43220 24-463); assay: cell-based or functional assay
[7] = biological target: T2, GLP-1R (on GLP-1R/CHO cells, DiscoverX …); assay: cell-based or functional assay; remark: listed apart in the source
[8] = male, C57BL/6N, mouse, in vivo, sc
[9] = C57BL/6N male mice, single subcutaneous dose 0.2 mg/5 mL/kg, plasma

T2 sequence (P43220 24-463 limits assumed): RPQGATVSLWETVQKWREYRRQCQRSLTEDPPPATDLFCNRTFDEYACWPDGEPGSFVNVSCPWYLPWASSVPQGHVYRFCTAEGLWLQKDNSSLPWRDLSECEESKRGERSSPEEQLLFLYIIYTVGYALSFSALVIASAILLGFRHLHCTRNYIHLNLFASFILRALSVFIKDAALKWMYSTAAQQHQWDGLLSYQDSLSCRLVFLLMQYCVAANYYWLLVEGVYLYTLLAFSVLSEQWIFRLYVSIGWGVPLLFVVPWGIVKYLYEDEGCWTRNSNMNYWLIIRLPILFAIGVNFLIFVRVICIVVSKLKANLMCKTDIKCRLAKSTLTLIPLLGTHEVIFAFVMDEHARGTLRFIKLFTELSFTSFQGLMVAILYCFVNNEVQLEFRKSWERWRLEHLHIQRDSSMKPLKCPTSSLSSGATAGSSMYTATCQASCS
GLP-1R, sequence (P43220 24-463): as the sequence (P43220 24-463 limits assumed) above
GLP-1R (on GLP-1R/CHO cells, DiscoverX 95-0062C2) (UniProt P43220), sequence (P43220 24-463 limits assumed): as above

EC50 (GLP-2): > 10000 nM
GLP-2 activity Compared to GLP-2 (GLP-2): ~ 0.02%
GLP-1 activity Compared to GLP-1 (Exendin-4) (GLP-1R): 1.5%
Tmax [1, 8]: 12 h
half-life [1, 8]: 15.9 h
Molecule: CC[C@H](C)[C@H](NC(=O)[C@H](Cc1ccccc1)NC(=O)[C@H](CC(=O)O)NC(=O)[C@H](CCCNC(=N)N)NC(=O)[C@H](C)NC(=O)[C@H](C)NC(=O)[C@H](CC(C)C)NC(=O)[C@H](C)NC(=O)[C@H](CC(=O)O)NC(=O)[C@H](CC(C)C)NC(=O)[C@H](Cc1ccc(O)cc1)NC(=O)[C@@H](NC(=O)[C@H](CO)NC(=O)[C@H](CC(C)C)NC(=O)[C@H](CC(=O)O)NC(=O)[C@H](CO)NC(=O)[C@@H](NC(=O)[C@H](Cc1ccccc1)NC(=O)[C@@H](NC(=O)CNC(=O)[C@H](CCC(=O)O)NC(=O)CNC(=O)[C@@H](N)Cc1c[nH]cn1)[C@@H](C)O)[C@@H](C)O)[C@@H](C)O)C(=O)N[C@@H](CC(N)=O)C(=O)N[C@@H](Cc1c[nH]c2ccccc12)C(=O)N[C@@H](CC(C)C)C(=O)N[C@H](C(=O)N[C@@H](CCC(N)=O)C(=O)N[C@H](C(=O)N[C@@H](CCCCN)C(=O)N[C@H](C(=O)N[C@H](C(=O)N[C@@H](CC(=O)O)C(=O)N[C@@H](CCCCN)C(=O)N[C@@H](CCCCNC(=O)CC[C@H](NC(=O)CCCCCCCCCCCCCCCCCCC(=O)O)C(=O)O)C(=O)O)[C@@H](C)O)[C@@H](C)CC)[C@@H](C)O)[C@@H](C)CC [HU020M2] (HELM PEPTIDE1{H.G.E.G.T.F.T.S.D.L.S.T.Y.L.D.A.L.A.A.R.D.F.I.N.W.L.I.Q.T.K.I.T.D.K.K}|PEPTIDE2{[O=C(O)CCCCCCCCCCCCCCCCCCC(=O)[*:2]].[gGlu]}$PEPTIDE1,PEPTIDE2,35:R3-2:R2$$$V2.0; N-terminus and C-terminus assumed)

GLP-2 activity Compared to GLP-2 (GLP-2): < 4.0%
GLP-1 activity Compared to GLP-1 (Exendin-4) (GLP-1R): 20.2%
Molecule: CC[C@H](C)[C@H](NC(=O)[C@H](Cc1ccccc1)NC(=O)[C@H](CC(=O)O)NC(=O)[C@H](CCCNC(=N)N)NC(=O)[C@H](C)NC(=O)[C@H](C)NC(=O)[C@H](CC(C)C)NC(=O)[C@H](C)NC(=O)[C@H](CC(=O)O)NC(=O)[C@H](CC(C)C)NC(=O)[C@H](Cc1ccc(O)cc1)NC(=O)[C@@H](NC(=O)[C@H](CO)NC(=O)[C@H](CC(C)C)NC(=O)[C@H](CC(=O)O)NC(=O)[C@H](CO)NC(=O)[C@@H](NC(=O)[C@H](Cc1ccccc1)NC(=O)[C@@H](NC(=O)CNC(=O)[C@H](CCC(=O)O)NC(=O)C(C)(C)NC(=O)[C@@H](N)Cc1c[nH]cn1)[C@@H](C)O)[C@@H](C)O)[C@@H](C)O)C(=O)N[C@@H](CCCCNC(=O)CC[C@H](NC(=O)CCCCCCCCCCCCCCCCC(=O)O)C(=O)O)C(=O)N[C@@H](Cc1ccccc1)C(=O)N[C@@H](C)C(=O)N[C@@H](Cc1c[nH]c2ccccc12)C(=O)N[C@@H](CC(C)C)C(=O)N[C@H](C(=O)N[C@@H](CCC(N)=O)C(=O)N[C@H](C(=O)N[C@@H](CCCCN)C(=O)N[C@H](C(=O)N[C@H](C(=O)N[C@@H](CC(=O)O)C(=O)O)[C@@H](C)O)[C@@H](C)CC)[C@@H](C)O)[C@@H](C)CC [HU020M7] (HELM PEPTIDE1{H.[Aib].E.G.T.F.T.S.D.L.S.T.Y.L.D.A.L.A.A.R.D.F.I.K.F.A.W.L.I.Q.T.K.I.T.D}|PEPTIDE2{[O=C(O)CCCCCCCCCCCCCCCCC(=O)[*:2]].[gGlu]}$PEPTIDE1,PEPTIDE2,24:R3-2:R2$$$V2.0; N-terminus and C-terminus assumed)

Molecule: CCCCCCCCCCCCCCCC(=O)N[C@@H](CCC(=O)NCCCC[C@H](NC(=O)[C@H](C)NC(=O)[C@H](C)NC(=O)[C@H](CCC(N)=O)NC(=O)CNC(=O)[C@H](CCC(=O)O)NC(=O)[C@H](CC(C)C)NC(=O)[C@H](Cc1ccc(O)cc1)NC(=O)[C@H](CO)NC(=O)[C@H](CO)NC(=O)[C@@H](NC(=O)[C@H](CC(=O)O)NC(=O)[C@H](CO)NC(=O)[C@@H](NC(=O)[C@H](Cc1ccccc1)NC(=O)[C@@H](NC(=O)CNC(=O)[C@H](CCC(=O)O)NC(=O)[C@H](C)NC(=O)[C@@H](N)Cc1c[nH]cn1)[C@@H](C)O)[C@@H](C)O)C(C)C)C(=O)N[C@@H](CCC(=O)O)C(=O)N[C@@H](Cc1ccccc1)C(=O)N[C@H](C(=O)N[C@@H](C)C(=O)N[C@@H](Cc1c[nH]c2ccccc12)C(=O)N[C@@H](CC(C)C)C(=O)N[C@H](C(=O)N[C@@H](CCCNC(=N)N)C(=O)NCC(=O)N[C@@H](CCCNC(=N)N)C(=O)NCC(=O)O)C(C)C)[C@@H](C)CC)C(=O)O [Liraglutide, reference compound]
Cumulative food intake (C57BL/6 DIO mice [2]): 58.5 ± 2.5 g
Weight (C57BL/6 DIO mice [2]): 40.1 ± 4.9 g
Blood glucose (C57BL/6 DIO mice [3]): 209.2 ± 26.7 mg/dL
High-density lipoprotein (C57BL/6 DIO mice [3]): 74.7 ± 2.6 mg/dL
Low-density lipoprotein (C57BL/6 DIO mice [3]): 9.7 ± 3.3 mg/dL
Triglyceride (C57BL/6 DIO mice [3]): 9.6 ± 0.8 mg/dL

Molecule: GLP-1
half-life (t1/2) [4]: < 2 min

Molecule: HGEGTFTSDLSTYLDALAAC(+mPEG)DFINWLIQTKITDKK(+C16 FA) (HGEGTFTSDLSTYLDALAAC(mPEG 3.4 kDa)DFINWLIQTKITDKK(C16 fatty acid)) [HU020M6, 3.4kDa maleimidated PEG conjugated to cysteine at position 20, C16 fatty acid]
GLP-2 activity Compared to GLP-2 (GLP-2): ~ 0.02%
EC50 (GLP-2; read-out: GLP-2 activity (EC50)): > 10000 nM
AUClast [1, 9]: 6508.0 ng·h/mL
Cmax [1, 9]: 433.6 ng/mL
T1/2 [1, 9]: 7.0 h
Tmax [1, 9]: 8.0 h

GLP-1 activity, Compared to GLP-1 (Exendin-4) [5]: 24.5%
Molecule: Semaglutide (peptide)

EC50, cAMP increase in GLP-1R/CHO cells, average (n=4) [6]: 0.0048 nM
Relative to GLP-1 (Exendin-4) %, cAMP in GLP-1R/CHO cells, average (n=4) [6]: 199%
GLP-1 activity (EC50, pM) [7]: 4.15 pM
GLP-1 activity, Compared to GLP-1 (Exendin-4) [7]: 171%
Molecule: HGEGTFTSDLSTYLDALAARDFINWLIQTKITD [HU020]

EC50, cAMP increase in GLP-1R/CHO cells, average (n=4) [6]: 0.0151 nM
Relative to GLP-1 (Exendin-4) %, cAMP in GLP-1R/CHO cells, average (n=4) [6]: 63.4%
GLP-1 activity (EC50, pM) [7]: 30.1 pM
GLP-1 activity, Compared to GLP-1 (Exendin-4) [7]: 23.6%
Molecule: HGEGTFTSDLSTYLDALAARDFINWLIQTKITDKK(Palmitoyl) [HU020K2FA]
